Test results taken from the nanobody polyreactivity screen of Harvey et al. (2022).

Assay: yeast display, Sf9 membrane polyspecificity reagent, FACS + sequencing; frameworks hold sequencing errors
Method in brief: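 Nanobodies from a synthetic yeast display library (Saccharomyces cerevisiae BJ5465), induced 36–48 hours with galactose, were stained 1 hour at 4 °C with 10% biotinylated, detergent-solubilized Sf9 membrane reagent, enriched on streptavidin microbeads, then FACS-sorted. Anti-HA (expression) and streptavidin (reagent binding) fluorescence set low and high (top ~1%) gates. Polyreactivity labels come from the gate of origin. Genes were colony-PCR amplified, MiSeq 2 × 250 sequenced and filtered by CDR length.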

Sequence	polyreactivity (PSR sort gate)
QVQLVESGGGLVQAGGSLRLSCAASGSIFVGYDMGWYRQAPGKERDLVASINGGDSTNYADSVKGRFTISRDNAKYTVYLQMNSLKPEDTAVYYCAKDVTYTDEYDYWGQGTQVTVSS	low polyreactivity
QVQLVESGGGLVQAGGSLRLSCAASGRNFCVYAMGWYRHDHGKERELVAAISYDDGDTFYADSVKGRFTISRDNAKNTVYLQMNSLKPDDTAVYYCDAEGYSYIQSDLDYCGQGTQVTVSS	high polyreactivity
QVQLVESGGGLVQAGGSHRLSCAASGSIFQSYAMGWYRQAPGKERELVAAIDRSGTSTYYADSVKGRFTISRDNAKNTVYLQMNSLKPEDTAVYYCNTLRRSWQMDYWGQGTQVTVSS	low polyreactivity
QVQLVESGGALVQAGGSLRLSCAASGSIYGGYTMGWYRHAPGKEMEFVAAISRRGGNTYYADSVKGRFTISRDNAKNTVYLQMNSLKPEDTAVYYCAVRWPSARIQVKLDYWGQGTQVTVSS	high polyreactivity
QVQLVESGGGLVQAGGSLRLSCAASGRIFFHNAMGWYRQARGKERELVAAISYSGGSTYYADSVKGRFTIARDNAKNTVYLQMNSLKPEDTAVYYCNRYGNSYYFPPGPLYNYWGQGTQVTVSS	high polyreactivity
QVQLVESGGGLVQAGGSLRLSCAASGNTFKYYAMGWYRQAPGKERELVAAISYSGGSTYYADSVKGRFTISRDNAKNTVYLLMNSLKPEVTAVYYCAADLDSERYYWGQGTQVTVSS	low polyreactivity
QVQLVESGGGLVQAGGSLRFSCAASGSIFIANAMGWYRQAPGQERALVAAIDSGGSTNYADSVKGRFTISRDNAKNTVYLQMNSLKPEDTAVYYCADDGTLTAPGGDYWGQGTQVTVSS	high polyreactivity
QVQLVESGGGLVQAGGSLRLSCAASGRTFNIYAMGWYRQAPGKERELVAAISKRGGTTYYADSVKGRFTISRDNAKNTVYLQMNSLKPEDTAVYYCAADRTNPYYGGMDYWGQGTQVTVSS	high polyreactivity
QVQLVESGGGLVHPGGSLRLSCAASGRTYAVDAMGWYRQAPGKERELVAAISRRGGSTSYADSEKGRFTISRDNAKNTVSLQMNSLKPEDTAVYYCNTDPGKFTPFDYWGQGTQVTVSS	high polyreactivity
QVQLVESGGGLVQAGGSLRLSCAASGSTFPSNVMGWYRQAPGKERELVAAITWSGGRTYYADSVKGRFTISRDNAKNTVYLQMNSLKPEDTAVYYCAVRSSYVRYDYWGKGTQVTVSS	high polyreactivity
QVQLVESGGGLVQAGGSLRLSCAASGSTFGAYAMGWYRQAPGKERELVAAISSSDGSTYYADSVKGRFTISRDNAKNTVYLQMNSLKPEDTAVYYCAAEYYSAVYIDEYWYDYWGQGTQVTVSS	high polyreactivity
QVQLVESGGGLVQAGGSLRLSCAASGSIFSPYAMGWYRQAPGKERELVAAISYGVGNTYYADSVKGRFTISRDNAKNTVYLQMNSLKPEDTAVYYCAAEEYDYVYPHYFTKGYYWGQGTQVTVSS	high polyreactivity
QVQLVESGGGLVQAGGSLRLSCAASGLNFTYNAMGWSRQAPGKESELVAAITRSGGSTYYADSVKGRFTISRDNAKNTVYLQMNSLKPEDTAVYYCAKDDSAYSKYGYWGQGTQVTVSS	low polyreactivity
QVQLVESGGGLVQEGGSLRLICAASGRILRDNAMGWYRQAPGKERELVAAISVSTVSTYYADSVKGLFTISRDNANNTVYFHMNSLKPEDTAVYYCNADATDSYPEKDEHDSWGQGTQVTVSS	low polyreactivity
QVQLVESGGGLVQAGGSLRLSCPASGFIFYDYAMGWYRQAPGKERELVAAISSGGSTNYADSVKGRFTISRDNAKNTVYLQMNSLKPEDTAVYYCAADDRSYATWKRDYDYWGQGTQVTVSS	low polyreactivity
QVQLVESGGGLVQAGGSLRLSCAASGYTFFYYAMGWSRQAPGKERELVAIDLNGGSTYYADSVKGRFTISRDNAKNTVYLQMNSLKPEDTAVSSCAATRPWYGDVGYLEDYWGQGTQVTVSS	low polyreactivity

Sequence	polyreactivity (PSR sort gate)
QVQLVESGGGLVQAGGSLRLSCAASGRTFGYYAMGWYRQAPGKERELVAAISTRSGSTYYADSVKGRFTISRDNAKNTVYLQMNSLKPEDTAVYYCAADSYPDYDYWGQGTQVTVSS	low polyreactivity
QVQLVESGGGLVQAGGSLRLSCAASGRILSVYAMGWYRQAPGKERELVAAIDYSGGSTNYADSVKGRFTISRDNAKNTVYLQMNSLKPEDTAVYYCNREGGAIAWRYLLEYLYSWGQGTQVTVSS	low polyreactivity
QVQLVESGGGLVQAGGSLRLSCAASGSTFSDNARGWYRQAPGKERELVAAIKETGGSTYYADSVKGRCTISRDNAKNTVYLQMNSLKPEDTAVYYCNADIDPYGATYAIEYDYWGQGTQVTVSS	low polyreactivity
QVQLVESGGGLVQAGGSLRLSCAASGRIFVGNTMGWYRQAPGKERELVAAISWRGRTSYADSVKGRFTISRDNAKNTVYLQMNSLKPEDTAVYYCNAEHAGATRYYYIANWMDYWGQGTQVTVSS	low polyreactivity
QVQLVESGGGLVQAGGSLRLSCAASGRTFSVNAMGWYRQAPGKERELVAAISWDGGSTYYADSVKGRFTISRDNAKNTVYLQMNSLKPEDTAVYYCNQDLYYAYDYWGQGTQVTVSS	low polyreactivity
QGQLVESGGGLVQAGGSLRLSCAASGNIFNRYGMGWSRQAPGKERELVAAISSSGTSPYYADSVKGRFTISRDYAKNTVYLQMNSLKPEDTAVYYCAASYPTRAWEYDYWGQGTQVTVSS	high polyreactivity
QVQLVESGGGLVQAGGSLRLSCAASGFTFYVYAIGWYRKAPRKEREFVAAISKSGGRTYYADSVKGRFTISRDTAKNTVYLQMNSLKPEDTAVYYCGRYNRYQIIYPRFDYWGHGTQVTVSS	high polyreactivity
QDQLVESGGGLVQARGSLRLICSASGFIISDYAMGWSRQAPGEERELVAVITWRSGSTYYADSVKGRFTISRDNAKNTVYLQMNSLKPEDTAVYYCAARYYRNYSQGRRLGYNYWGQGTQVTVSS	high polyreactivity
QVQLVESGGGLVQAGGSLRLSCAASGSIFAHYTMGWYRQAPGKERELVAVISRSGARTYYADSVKGRFTISRDNAKNTVYLQMNSLKPEDTAVYYCAATWGSVQKGTYYYWGQGTQVTVSS	low polyreactivity
QVQLVESGGGLVQAGGSLRLSCAASGSIFRVYAMGWYRRAPGKERELVATITWNGGSTYYADSVKGRFTISRDNAKNTVYLQMNSLKPEDTAVYYCAKPTSWRRVLPMDYWGQGTQVTVSS	low polyreactivity
QVQLVESGGGLVQAGGSLRLSCAASGYIFPPYAMGWYRQAPGKERELVATITGIGGSTYYADSVKGRFTISRDNAKNTVYLQMNSLKPEDTAVYYCAARRDGYGTHYDYWGQGTQVTVSS	low polyreactivity
QVQLVESGGGLVQAGGSLRLSCAASGLTFGRYTMGWYRQAPGKERELVAAISYSGGSTYYADSVKGRFTISRDNAKNTVYLQMNSLKPEDTAVYYCAKRWTGLGGYYYWGQGTQVTVSS	high polyreactivity
QVQLVESGGGLVQAGGSLRLSCAPSGRTLFTNAMGWYRQAPGKERELVAAISIGGTTYYADSVKGRFTISRDNAKNTVYLQMNSLKPEDTAVYYCNKVRRFHSEYGYWGQGTQVTVSS	high polyreactivity
QVQLVESGGGLVQAGGSLRLSCGASGFSFTRTAMGWYRQAPGKERELVAAISRGGSTNYADSVKGRFTISRDNAKITVYFQMNSLNPEDPSLYFCAKVRTRATPGVDYYYWGQGSQVTVSS	high polyreactivity
QVQLVESGGGLVQAGGSLSLSCAASGIIFGSYAMGWYRQAPGKESELVAAITSRGSSTRYADSVKGRFTISRDNAKNTVYLQMNSLKPEDTAVYYCATKVVVAHLPGYYYWGQGTQVTVSS	high polyreactivity
